The values that follow come from US20260274985A1 (MYTHIC THERAPEUTICS, published 2026).

In experiment [1] the target is T1, Human TROP2 Protein, His Tag (Acro Biosystems) (human, UniProt P09758 27-274).
T1 construct: not shown: His tag
T1 sequence (looked up): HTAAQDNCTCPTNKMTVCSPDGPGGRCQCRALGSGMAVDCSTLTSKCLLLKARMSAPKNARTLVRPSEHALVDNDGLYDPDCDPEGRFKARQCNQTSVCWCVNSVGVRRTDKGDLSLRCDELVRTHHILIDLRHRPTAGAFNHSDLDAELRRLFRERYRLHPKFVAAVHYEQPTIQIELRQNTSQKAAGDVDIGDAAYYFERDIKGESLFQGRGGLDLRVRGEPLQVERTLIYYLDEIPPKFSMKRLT
As to the kind of experiment: BLI (Octet) [1/2].

Experiment [2] concerns the target T2, Human TROP2 Protein, His Tag (Acro Biosystems) (human, UniProt P09758 27-274).
T2 construct: Soluble analyte of the Octet assay; also called TACSTD2; not shown: His tag
T2 sequence (looked up): T1 sequence (looked up)
As to the kind of experiment: BLI (Octet) [1/2]. For orientation: BLI is a label-free optical method that tracks binding on a fibre tip over time.

Positions count from the first letter of the chain named. Read-outs that look alike come from different tables or passages of the source.

B1: MYT12314 (antibody, V domains shown)
VH: QVQLQQSGSELKKPGASVKVSCKASGYTFTNYGMNWVKQAPGQGLKWMGWINTYTGEPTYTHDFHGRFAFSLDTSVSTAYLQISSLKADDTAVYFCARGGFGSSYWYFDVWGQGSLVTVSS
VL: DIQLTQSPSSLSASVGDRVSITCKASQDVSIAVAWYQQKPGKAPKLLIYSASYRYTGVPDRFSGSGSGTDFTLTISSLQPEDFAVYYCQQHYITPLTFGAGTKVEIK
notes: sacituzumab VH 62, 65 -> H
As for B1, in experiment [1], the binding result is recorded as “binds”.

B2: MYT13204 (antibody, V domains shown)
VH: B1 VH with H62D, D63H, H65K
VL: B1 VL with Q89H
notes: Sacituzumab HC-LC pairing variant; IgG
As for B2, the binding result in experiment [2] is “binds”.

B3: MYT12328 (antibody, V domains shown)
VH: B1 VH with Y60H, H62D, F64H
VL: B1 VL
notes: sacituzumab VH 60, 64, 65 -> H
As for B3, in experiment [1], the binding result was “binds”.

B4: MYT12334 (antibody, V domains shown)
VH: B1 VH with H62D, H65K
VL: B1 VL with S30H, S52H
notes: sacituzumab VL 30, 52 -> H
On to B4, for which, in experiment [1], the binding result was “binds”.

B5: MYT13211 (antibody, V domains shown)
VH: B1 VH with H65K
VL: B1 VL with H91A
notes: as for B2
B5: in experiment [2], the binding result is listed as “binds”.

B6: MYT13230 (antibody, V domains shown)
VH: B1 VH with H62D
VL: B1 VL with I93H
notes: as for B2
On to B6, for which, in experiment [2], the binding result is reported as “binds”.

B7: MYT13213 (antibody, V domains shown)
VH: B1 VH with H62D, F64H, H65K
VL: B1 VL with H91A
notes: as for B2
For B7, the binding result in experiment [2] is “binds”.

B8: MYT13225 (antibody, V domains shown)
VH: B1 VH with G33H, H62D, H65K
VL: B1 VL with I93H
notes: as for B2
Regarding B8, the binding result in experiment [2] was “binds”.

B9: MYT13227 (antibody, V domains shown)
VH: B1 VH with H65K
VL: B1 VL with I93H
notes: as for B2
With B9, the binding result in experiment [2] is “binds”.

B10: MYT13224 (antibody, V domains shown)
VH: B1 VH with Y32H, H62D, H65K
VL: B1 VL with I93H
notes: as for B2
Turning to B10, in experiment [2], the binding result is recorded as “binds”.

B11: MYT12325 (antibody, V domains shown)
VH: B1 VH with G33H, H62D, F64H
VL: B1 VL
notes: sacituzumab VH 33, 64, 65 -> H
On to B11, for which, in experiment [1], the binding result is given as “binds”.

B12: MYT13214 (antibody, V domains shown)
VH: B1 VH with H62D
VL: B1 VL with H91A
notes: as for B2
Take B12: in experiment [2], the binding result is on record as “binds”.

B13: MYT12333 (antibody, V domains shown)
VH: B1 VH with H62D, H65K
VL: B1 VL with S30H, A51H
notes: sacituzumab VL 30, 51 -> H
Turning to B13, the binding result in experiment [1] is “binds”.

B14: MYT12336 (antibody, V domains shown)
VH: B1 VH with H62D, H65K
VL: B1 VL with S30H, Q89H
notes: sacituzumab VL 30, 89 -> H
Consider B14, for which, in experiment [1], the binding result was “binds”.

B15: MYT13240 (antibody, V domains shown)
VH: B1 VH with Y32H, H62D, H65K
VL: B1 VL with A51H, Q89H
notes: as for B2
Consider B15, for which the binding result in experiment [2] is reported as “binds”.

B16: MYT13231 (antibody, V domains shown)
VH: B1 VH with H62D, H65K, G66H
VL: B1 VL with I93H
notes: as for B2
Take B16: the binding result in experiment [2] is “binds”.

B17: MYT12332 (antibody, V domains shown)
VH: B1 VH with H62D, H65K
VL: B1 VL with S30H, V33H
notes: sacituzumab VL 30, 33 -> H
For B17, the binding result in experiment [1] was “binds”.

B18: MYT12335 (antibody, V domains shown)
VH: B1 VH with H62D, H65K
VL: B1 VL with S30H, Y53H
notes: sacituzumab VL 30, 53 -> H
B18: in experiment [1], the binding result was “binds”.

B19: MYT13212 (antibody, V domains shown)
VH: B1 VH with H62D, D63H, H65K
VL: B1 VL with H91A
notes: as for B2
For B19, in experiment [2], the binding result is given as “binds”.

B20: MYT12316 (antibody, V domains shown)
VH: B1 VH with H62D, D63H, F64H, H65K
VL: B1 VL
notes: sacituzumab VH 63, 64 -> H
Take B20: in experiment [1], the binding result is on record as “binds”.

B21: MYT12324 (antibody, V domains shown)
VH: B1 VH with G33H, Y60H, H62D, H65K, G66H
VL: B1 VL
notes: sacituzumab VH 33, 60, 66 -> H
On to B21, for which the binding result in experiment [1] is listed as “binds”.

B22: MYT13215 (antibody, V domains shown)
VH: B1 VH with H62D, H65K, G66H
VL: B1 VL with H91A
notes: as for B2
With B22, the binding result in experiment [2] is recorded as “binds”.

B23: MYT13205 (antibody, V domains shown)
VH: B1 VH with H62D, F64H, H65K
VL: B1 VL with Q89H
notes: as for B2
Consider B23, for which the binding result in experiment [2] is “binds”.

B24: MYT13234 (antibody, V domains shown)
VH: B1 VH with Y60H, H62D, H65K
VL: B1 VL with A51H, S52H
notes: as for B2
For B24, in experiment [2], the binding result is listed as “binds”.

B25: MYT13206 (antibody, V domains shown)
VH: B1 VH with H62D
VL: B1 VL with Q89H
notes: as for B2
With B25, the binding result in experiment [2] is recorded as “binds”.

B26: MYT13245 (antibody, V domains shown)
VH: B1 VH with H62D, F64H, H65K
VL: B1 VL with A51H, Q89H
notes: as for B2
For the molecule B26, the binding result in experiment [2] is given as “binds”.

B27: MYT13228 (antibody, V domains shown)
VH: B1 VH with H62D, D63H, H65K
VL: B1 VL with I93H
notes: as for B2
B27: in experiment [2], the binding result was “binds”.

B28: MYT12339 (antibody, V domains shown)
VH: B1 VH with H62D, H65K
VL: B1 VL with S30H, I93H
notes: sacituzumab VL 30, 93 -> H
Consider B28, for which the binding result in experiment [1] is “binds”.

B29: MYT13236 (antibody, V domains shown)
VH: B1 VH with H62D, D63H, H65K
VL: B1 VL with A51H, S52H
notes: as for B2
B29: the binding result in experiment [2] was “binds”.

B30: MYT13242 (antibody, V domains shown)
VH: B1 VH with Y60H, H62D, H65K
VL: B1 VL with A51H, Q89H
notes: as for B2
Turning to B30, the binding result in experiment [2] was “binds”.

B31: MYT13243 (antibody, V domains shown)
VH: B1 VH with H65K
VL: B1 VL with A51H, Q89H
notes: as for B2
As for B31, the binding result in experiment [2] is “binds”.

B32: MYT13244 (antibody, V domains shown)
VH: B1 VH with H62D, D63H, H65K
VL: B1 VL with A51H, Q89H
notes: as for B2
As for B32, the binding result in experiment [2] is recorded as “binds”.

B33: MYT13235 (antibody, V domains shown)
VH: B1 VH with H65K
VL: B1 VL with A51H, S52H
notes: as for B2
As for B33, the binding result in experiment [2] is listed as “binds”.

B34: MYT13229 (antibody, V domains shown)
VH: B1 VH with H62D, F64H, H65K
VL: B1 VL with I93H
notes: as for B2
With B34, the binding result in experiment [2] is “binds”.

B35: MYT13226 (antibody, V domains shown)
VH: B1 VH with Y60H, H62D, H65K
VL: B1 VL with I93H
notes: as for B2
In the case of B35, in experiment [2], the binding result was “binds”.

B36: MYT12315 (antibody, V domains shown)
VH: B1 VH with H65K, G66H
VL: B1 VL
notes: sacituzumab VH 62, 66 -> H
With B36, the binding result in experiment [1] is “binds”.

B37: MYT12329 (antibody, V domains shown)
VH: B1 VH with Y60H, H62D, F64H, H65K, G66H
VL: B1 VL
notes: sacituzumab VH 60, 64, 66 -> H
With B37, the binding result in experiment [1] is given as “binds”.

B38: MYT13207 (antibody, V domains shown)
VH: B1 VH with H62D, H65K, G66H
VL: B1 VL with Q89H
notes: as for B2
With B38, in experiment [2], the binding result is recorded as “binds”.

B39: MYT12326 (antibody, V domains shown)
VH: B1 VH with G33H, H62D, F64H, H65K, G66H
VL: B1 VL
notes: sacituzumab VH 33, 64, 66 -> H
On to B39, for which, in experiment [1], the binding result was “binds”.

B40: MYT12340 (antibody, V domains shown)
VH: B1 VH with H62D, H65K
VL: B1 VL with V33H, A51H
notes: sacituzumab VL 33, 51 -> H
For B40, the binding result in experiment [1] is on record as “binds”.

B41: MYT12341 (antibody, V domains shown)
VH: B1 VH with H62D, H65K
VL: B1 VL with V33H, S52H
notes: sacituzumab VL 33, 52 -> H
For B41, in experiment [1], the binding result is reported as “binds”.
